Measurements: the RNAGym collection of RNA variant scans (doi:10.1073/pnas.2313332121)
Variants at the floor of the assay were thinned out.

B1: TPR 5TU (parent)
chain: GGAUCUUCUCGAUCUAACAAAAAAGACAAAUCUGCCACAAAGCUUGAGAGCAUCUUCGGAUGCAGAGGCGGCAGCCUUCGGUGGCGCGAUAGCGCCAACGUUCUCAACUAUGACACGCAAAACGCGUGCUCCGUUGAAUGGAGUUUAUCAUG

Variants of: B1
Assay: polymerase ribozyme fitness, log enrichment relative to wild type (log ratio); higher = more active; in vitro selection for triplet polymerase activity
In short: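 Each subunit of a heterodimeric triplet polymerase ribozyme was represented by a PCR-built, transcribed mutant library that underwent triplicate single-round in vitro selection with frozen incubation at −7 °C. Extended constructs were recovered by gel excision, streptavidin-bead capture and RT-PCR, and Illumina sequencing of input and output libraries kept genotypes with ≥10 input reads and ≥1 read per output. Fitness is the logarithm of genotype enrichment relative to wild-type enrichment, from inverse-variance-weighted replicate averages, with a logarithm base of 2.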

Variant	polymerase ribozyme fitness (log ratio)
U45A C85U C118G A138U	-4.16
A20U G59A C93A	-4.07
U13G C27A C36U A40C A60G A138G	≤ -4.2
U44A C93U C99A U111G A138G G152U	-3.36
C85U A150C	-2.26
G46C C149U	-2.58
G112A U148C	-4.13
U6C C32U G84A G88C U111C A150U	≤ -4.2
G50C A66G C96U U146G	≤ -4.2
A41U C69U C87U	-2.75
A12G A28C C79U U82C G86U G88A A106U C129U U148G G152U	≤ -4.2
A52G C93G	-3.95
C14G A40C G42C G48A G86U G92U C99A	≤ -4.2
C85G G141U U146A	-0.46
C14G A39C C54G G71U C79G	≤ -4.2
C76U C96A	0.322
G48U G86U	-1.58
U82A C93U A119U U127G G143C	-4.06
A23U G50A C95U A137G	≤ -4.2
A12G U45A C57G U78A G80U C103A C118G	≤ -4.2
C18U A20C G34U C76A C79A G88A	≤ -4.2

Variant	polymerase ribozyme fitness (log ratio)
A21U C79G C96U C105U U134A	≤ -4.2
G59C A73G G86U	-2.26
C10G A41G A115G	≤ -4.2
A20U A49C G50C G92U U146G C149U	≤ -4.2
U33G A39G G62U G92A A122U U134A	≤ -4.2
G50C G84A	-3.25
C18U C76A C95U C99A U101G A107U C149G	≤ -4.2
G71C C87A G128U C131U G152U	≤ -4.2
U45G C85U	-0.0479
C35U C93G	-3.19
A17U G25C A29U G48C U53A G70U C93G C129A C131A A150C	≤ -4.2
A19G U55A C85A	-2.52
U13A A41G C85G A147G	-2.67
G11C C38U C76U U78G A97G G124U	≤ -4.2
A22U G86A G92U	-1.74
U53G G83U G86A U104C	≤ -4.2
C5A A21C G74A U82G G92U	≤ -4.2
G48C U61A U77A C125U U144A	≤ -4.2
U6G U139C	-3.69
C85A A115C	-1.64
A52U U53A C57A G58C A89U	0.000593

Variant	polymerase ribozyme fitness (log ratio)
U4G A73G A97G	0.0284
A16U C18A A21C A73U G92U	-2.75
U55A C96G G143A	-2.1
C54A G94C G141A	-3.13
C8U A29G G62A C93U C95A U144A	≤ -4.2
G11U G84A	-0.536
A52G U56A C87A C93A A113G U135A	≤ -4.2
U6G A16U C18U G67C G88C	≤ -4.2
A49C A73G C93U U127A	≤ -4.2
A60G C85A	-0.96
C99G A113C U135C	≤ -4.2
C38U G58A G86A C93U C96A C131A	-2.97
G46A U56A U82C C93A A107G C125U G136U	≤ -4.2
A98U G136U	-2.64
A22C G34U U82A C93A	≤ -4.2
U53C U55A C99U U111C	≤ -4.2
A20C C36U A47C	-1.91
U7A C18U	-3.45
A107G G141A	-2.72
G62C G81A A91U A113U C125U	≤ -4.2
C85A G126C	-0.131

Variant	polymerase ribozyme fitness (log ratio)
U9G A20U U31C C38G G86A U127G	≤ -4.2
A89U A122U	-0.615
G65A G136C A147C	-4.13
C57A G65A	-0.56
C54G C75G C87A	≤ -4.2
A26G G59U	-3.78
G50A C54G U77G A97U A120G	≤ -4.2
G83U A89C	-0.953
G94A A106C G136A	-0.404
U13G C27G C51A G84C A142G A147C	≤ -4.2
C5U U33A C38U C57G C93U A98U	≤ -4.2
U7C C18G G25C A28U C38G U55A G70C G94C	≤ -4.2
A20G U45C U56G C57U C75A C87G G136C	≤ -4.2
G83U A122C G133C A147C	-2.76
U4C A52U U82G C96A	-3.56
C57G C93U A115U	-3.44
C76U C87A A91G A107U G126A U145A	≤ -4.2
C79A G84A A120U U127C U144C	≤ -4.2
G11U C14G A26G U33G C57A C99G A120G	≤ -4.2
G34A A39U C96A U135C G140C	≤ -4.2
U15G G74A C96U C125A G141U	≤ -4.2
